Changes are numbered by the printed parent chain. Names may count otherwise.
B1: CD47 TMEAbody (70H1.IgG1.Y61C + 20K PEG) (antibody, V domains shown)
VH: QQQLEESGGGLVKPEGSLTLTCTASGFSFSSGYDMCWVRQAPGRGLEWIACIYTRSSGGTCYASWAKGRFTISKTSSTVDLRMTSLTAADTATYFCAGGRSSYRLNLWGQGALVTVSS
VL: DVVMTQTPSPVEAAVGGTVTIKCQASQSISNELSWYQQKPGQPPKLLIYRASTLESGVSSRFKGSGSGTEFTLTISDLECADAATYYCQSTFYGDYGNAFGGGTEVVVK
modifications: Cys 61 (Y61C) conjugated with PEG of approximately 20K molecular weight (blocker, cleavable by legumain)
notes: IgG1; The same question of backbone applies as for 70H1.IgG1.Y61C; also called 70H1 TMEAbody; 70H1; IgG1 + 20K PEG
B2: 70H1.IgG1.Y61C (antibody, V domains shown)
VH: B1 VH
VL: B1 VL
notes: IgG1; also called 70H1 IgG1-mutation; 70H1 mutant VH-61 (Y-C)
B3: CD47 TMEAbody activated (antibody, IgG1, V domains shown)
VH: B1 VH
VL: B1 VL
modifications: Cys 61 (Y61C): 20K PEG blocker cleaved off by legumain (asparaginyl endopeptidase); what remains on the Cys is not stated
notes: The CD47 TMEAbody after treatment with legumain / asparaginyl endopeptidase; IgG1
B4: 70G1 (antibody, V domains shown)
VH: QSVKESEGGLFKPTDTLTLTCTVSGFSLSNYAINWVRQAPGNGLEWIGIINGYGMTYYASWAKSRSTITRNTSENTVTLKLTSLTAADTATYFCARDRYGSYVGYSSDIWGPGTLVTVSS
VL: AYDMTQTPASVEAAVGGTVTIKCQASQNISSRLAWYQQKPGQPPKLLIYGTSTLASGVPSRFRGSGSGTQFSLTISDLECADAATYYCQHGYYYSSSFTTYNAFGGGTEVVVK
notes: Recombinant rabbit monoclonal antibody expressed in Expi293; it was detected with anti-human IgG Fc
B5: 71D6 (antibody, V domains shown)
VH: QSLEESGGDLVKPGASLTLTCTASGFSFSTSYWIYWVRQAPGKGLELIACIATGSDGSTYYASWASGRFTISKTSSTTVTLQMTSLTAADTATYFCAREAGNGVYNLWGQGTLVTVSS
VL: AYDMTQTPASVEVAVGGTVTIKCQASESIRNALAWYQQKPGQPPKLLISGASKLASGVASRFKGSGSATEFTLTISDLECADAATYYCQQYYSSSNVDNGFGGGTEVVVK
notes: as for B4
B6: 70H1 (antibody, V domains shown)
VH: B1 VH with C61Y
VL: B1 VL
notes: Rabbit-derived variable regions; also called 70H1.IgG1; 70H1 antibody
B7: 74F1 (antibody, V domains shown)
VH: QQQLEESGGDLVKPEGSLTLTCTASGFSFSSRYNMCWVRQAPGKGLEWIACIYTGSSGSTYYASWAKGRFTISKTSSTVDLKMTSLTAADTATYFCAGGSYSYRLNLWGQGTLVTVSS
VL: B1 VL with S9A, P10S, E12S, A13T, K63S, S90A, F92G, Y96F
notes: as for B4
B8: 69F12 (antibody, V domains shown)
VH: QSVEESEGGLFKPTDTLTLTCTISGFSLSNYDMIWVRQAPGNGLEYIGIISSRDKAGHAAWAKRRSTITRNPKENTVTLKMTSLTVADTATYFCARRFSSMHGLDIWGPGTLVTVSS
VL: AYDMTQTPSSVSAAVGGTVTIKCQASQSISNYLSWYQQKPGQPPKLLIYLASTLASGVPSRFKGSGSGTQFTLTISGVQCADAATYYCQQGYSSDSVDNVFGGGTEVVVK
notes: as for B4
B9: 70H1-VH2VL2 (antibody, V domains shown)
VH: QQQLVESGGGVVQPGGSLRLSCAASGFTFSSGYDMCWVRQAPGKGLEWIACIYTRSSGGTYYASWAKGRFTISKDNSKNTLYLQMNSLRAEDTAVYYCAKGRSSYRLNLWGQGTLVTVSS
VL: DIQMTQSPSTLSASVGDRVTIKCQASQSISNELSWYQQKPGKAPKLLIYRASTLESGVSSRFSGSGSGTEFTLTISSLQPDDFATYYCQSTFYGDYGNAFGGGTKVEIK
notes: Humanized 70H1
B10: 70H1-VH2VL1 (antibody, V domains shown)
VH: B9 VH
VL: B9 VL with K22T, S59P
notes: Humanized 70H1
B11: 70H1-VH2VL3 (antibody, V domains shown)
VH: B9 VH
VL: B9 VL with A43P
notes: Humanized 70H1
B12: 70H1-VH3VL3 (antibody, V domains shown)
VH: B9 VH with T28S, Y97F
VL: B9 VL with A43P
notes: Humanized 70H1
B13: 70H1-VH3VL1 (antibody, V domains shown)
VH: B9 VH with T28S, Y97F
VL: B9 VL with K22T, S59P
notes: Humanized 70H1, the final preferred antibody
B14: 70H1-VH1VL1 (antibody, V domains shown)
VH: B9 VH with Q2V, I49V, A50S, K74R
VL: B9 VL with K22T, S59P
notes: Humanized 70H1
B15: 70H1-VH1VL3 (antibody, V domains shown)
VH: B9 VH with Q2V, I49V, A50S, K74R
VL: B9 VL with A43P
notes: Humanized 70H1
B16: 70H1-VH3VL2 (antibody, V domains shown)
VH: B9 VH with T28S, Y97F
VL: B9 VL
notes: Humanized 70H1
B17: 70H1 mutant VH-33 Y to C (antibody, V domains shown)
VH: B1 VH with Y33C, C61Y
VL: B1 VL
B18: 70H1 mutant VL-53 T to C (antibody, V domains shown)
VH: B1 VH with C61Y
VL: B1 VL with T53C
B19: 70H1 mutant VL-93 Y to C (antibody, V domains shown)
VH: B1 VH with C61Y
VL: B1 VL with Y93C
B20: 70H1 mutant VL-96 Y to C (antibody, V domains shown)
VH: B1 VH with C61Y
VL: B1 VL with Y96C
B21: 70H1 mutant VH-65 W to C (antibody, V domains shown)
VH: B1 VH with C61Y, W65C
VL: B1 VL
B22: 70H1 mutant VL-27 Q to C (antibody, V domains shown)
VH: B1 VH with C61Y
VL: B1 VL with Q27C
B23: 70H1 mutant VL-49 Y to C (antibody, V domains shown)
VH: B1 VH with C61Y
VL: B1 VL with Y49C
B24: 70H1 mutant VH-55 R to C (antibody, V domains shown)
VH: B1 VH with R55C, C61Y
VL: B1 VL
B25: 70H1 mutant VL-92 F to C (antibody, V domains shown)
VH: B1 VH with C61Y
VL: B1 VL with F92C
B26: 70H1 mutant VL-98 N to C (antibody, V domains shown)
VH: B1 VH with C61Y
VL: B1 VL with N98C

biological target: T1, human CD47 antigen (immobilized on CM5 chip, Biacore) (human, UniProt Q08722 19-139, limits assumed); experiment: SPR (Biacore T200)
T1 sequence (Q08722 19-139 limits assumed): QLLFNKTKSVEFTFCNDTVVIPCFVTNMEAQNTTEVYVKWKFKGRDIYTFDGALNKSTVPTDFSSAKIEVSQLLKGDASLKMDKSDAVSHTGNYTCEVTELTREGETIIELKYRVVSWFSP

Binder	fold decrease of affinity compared to 70H1
B1	470 fold

biological target: T2, CD47 on Raji cells (human, UniProt Q08722 19-323); experiment: flow cytometry on Raji cells
T2 construct: whole, on cells
T2 sequence (Q08722 19-323): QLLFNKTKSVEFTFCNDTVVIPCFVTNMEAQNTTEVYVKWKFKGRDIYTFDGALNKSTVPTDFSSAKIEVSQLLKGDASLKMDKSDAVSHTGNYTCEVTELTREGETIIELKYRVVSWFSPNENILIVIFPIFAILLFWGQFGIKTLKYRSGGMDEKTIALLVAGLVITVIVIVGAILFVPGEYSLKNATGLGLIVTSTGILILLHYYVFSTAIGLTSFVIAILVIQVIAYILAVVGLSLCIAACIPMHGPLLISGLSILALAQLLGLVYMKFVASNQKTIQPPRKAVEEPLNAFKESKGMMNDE

Binder	fold lower binding compared to 70H1
B1	~60 fold

biological target: T2, CD47 on Raji cells; experiment: flow cytometry on Raji cells; remark: another data set of the same source

Binder	EC50
B2	0.47 nM
B3	0.24 nM
B1	31.9 nM

biological target: T3, CD47 on CHOK1-CD47 cells (UniProt Q08722 19-323); experiment: flow cytometry on CHOK1-CD47 cells
T3 construct: whole, on cells; The rabbits were immunized with human CD47, so human is likely
T3 sequence (Q08722 19-323 limits assumed): as the sequence (Q08722 19-323) above

Binder	EC50	fold lower binding compared to 70H1
B4	2.88 nM	–
B5	3.8 nM	–
B6	0.91 nM	–
B7	2.82 nM	–
B1	–	~20 fold
B8	0.8 nM	–

biological target: T4, Recombinant human CD47 protein (DIMA BIOTECH, Cat# PME-100008) (human, UniProt Q08722 19-139, limits assumed); experiment: ELISA on coated recombinant human CD47
T4 construct: Bought protein, coated on ELISA plates; also called CD47 antigen
T4 sequence (Q08722 19-139 limits assumed): as the sequence (Q08722 19-139 limits assumed) above

Binder	fold weaker binding affinity compared to 70H1
B1	~7 fold

biological target: T3, CD47 on CHOK1-CD47 cells; experiment: flow cytometry on CHOK1-CD47 cells; remark: another data set of the same source

Binder	EC50
B6	0.38 nM
B2	0.39 nM
B3	0.91 nM
B1	7.6 nM

biological target: T3, CD47 on CHOK1-CD47 cells; experiment: flow cytometry on CHOK1-CD47 cells; remark: another data set of the same source

Binder	EC50
B9	1.17 nM
B10	1.09 nM
B11	1.05 nM
B12	1.01 nM
B13	0.23 nM
B14	1.04 nM
B15	1.76 nM
B16	0.64 nM
B6	0.35 nM

biological target: T4, Recombinant human CD47 protein (DIMA …); experiment: ELISA on coated recombinant human CD47; remark: another data set of the same source

Binder	EC50
B6	0.12 nM
B2	0.07 nM
B3	0.15 nM
B1	0.72 nM

biological target: antibody antigen (CD47) coated in the ELISA of Example 3 (UniProt Q08722); experiment: ELISA on coated antigen, ratio against wild-type 70H1
Sequence (Q08722 19-139 limits assumed): as above

Binder	Mutant Binding Strength (EC50 post-mutation / EC50 wild-type)
B17	1
B18	1
B2	1
B19	1
B20	1
B21	0.8
B22	1
B23	0.9
B24	1
B25	1.3
B26	1

biological target: T1, human CD47 antigen (immobilized on CM5 …); experiment: SPR (Biacore T200), CD47 antigen on CM5 chip, antibody as analyte, 1:1 model

Binder	Kd	koff	kon
B6	0.0308 nM	0.00014 s⁻¹	4.54e+06 M⁻¹ s⁻¹
B1	14.1 nM	0.000343 s⁻¹	24400 M⁻¹ s⁻¹
